Assay results taken from patent US12329823B2 (The Scripps Research Institute, priority 2021, dated 2025).
Where “and” joins values, the source holds several entries; their conditions need not be identical. Identical values can stand only once. Like-named read-outs stand apart in the source and are kept apart here.

Assays:
human GIPR = target: T1, human GIPR (Homo sapiens, UniProt P48546); assay: In vitro receptor activation reporter assay (CRE-Luc, HEK293-GIPR-CRE cells; receptor-mediated cAMP synthesis); type: cell-based; conditions: Table 11, human
T1 construct: expressed in transfected cells; host or cells: HEK293 (CRE-HEK293, HEK293-GIPR-CRE)
T1 sequence (P48546 22-466): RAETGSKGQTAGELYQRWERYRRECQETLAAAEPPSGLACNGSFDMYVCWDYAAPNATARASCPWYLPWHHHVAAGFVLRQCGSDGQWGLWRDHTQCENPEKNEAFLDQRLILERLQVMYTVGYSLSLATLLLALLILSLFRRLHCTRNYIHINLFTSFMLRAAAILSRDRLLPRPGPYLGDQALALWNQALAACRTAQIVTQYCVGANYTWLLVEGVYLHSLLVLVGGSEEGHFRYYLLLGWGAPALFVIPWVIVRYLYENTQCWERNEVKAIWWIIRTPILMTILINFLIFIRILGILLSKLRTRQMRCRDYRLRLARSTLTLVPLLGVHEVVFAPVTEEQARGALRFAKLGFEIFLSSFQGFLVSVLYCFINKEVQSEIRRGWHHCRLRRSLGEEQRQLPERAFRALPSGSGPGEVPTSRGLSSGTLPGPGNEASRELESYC

mouse GLP1R = target: T2, mouse GLP1R (Mus musculus, UniProt O35659); assay: In vitro potency, mouse GLP1R activation (receptor-mediated cAMP synthesis); type: cell-based; conditions: Table 12
T2 sequence (O35659 22-463): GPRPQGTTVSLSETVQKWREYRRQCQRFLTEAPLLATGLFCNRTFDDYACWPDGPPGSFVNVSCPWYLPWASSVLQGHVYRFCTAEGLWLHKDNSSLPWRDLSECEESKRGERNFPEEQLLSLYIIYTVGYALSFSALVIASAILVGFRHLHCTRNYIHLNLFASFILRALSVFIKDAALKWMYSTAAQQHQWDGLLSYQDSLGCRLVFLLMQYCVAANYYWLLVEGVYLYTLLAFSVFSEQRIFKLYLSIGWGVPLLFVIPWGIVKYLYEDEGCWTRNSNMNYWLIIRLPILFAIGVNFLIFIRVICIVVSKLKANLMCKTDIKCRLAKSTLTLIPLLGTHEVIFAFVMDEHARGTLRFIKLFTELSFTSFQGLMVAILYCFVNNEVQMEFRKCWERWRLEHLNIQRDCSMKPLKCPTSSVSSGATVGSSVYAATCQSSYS
Protocol: (§1) GLP-1R-CRE or HEK293-GIPR-CRE cells were seeded in 384-well plates at a density of 5000 cells per well and cultured for 18 h in DMEM with 10% FBS at 37° C. and 5% CO2. Cells were treated with peptides in a dose dependent manner for 24 h, and receptor activation was reported by luminescence intensities, using One-Glo (Promega, WI) luciferase reagent following manufacturer's instruction. The EC50 of each peptide was determined using GraphPad Prism 6 software (GraphPad, San Diego, CA). Results are depicted in FIGS. 6A-6B, FIGS. 7A-7B, FIGS. 8A-8B, FIGS. 9A-9B, and Tables 7-12. Measurements of peptide conjugate potency were expressed as half maximal effective concentration (EC50) values.

cynomolgous monkey GLP1R = cynomolgous monkey GLP1R (Macaca fascicularis, UniProt F8V479); assay: In vitro potency, cynomolgous monkey GLP1R activation (receptor-mediated cAMP synthesis); type: cell-based; conditions: Table 12; read-out: In Vitro Potency GLP1R EC50, Cyno
Protocol: as §1

in vivo = conditions: dog
[1] = Pharmacokinetics in CD-1 mouse, I.V. or S.C. 1 mg/kg, plasma concentration by LC-MS; conditions: individual animals; for AUC(0-inf): AUCINF_pred; for MRT inf / MRT last: mouse, in vivo; for MRT inf: MRTINF_pred; for MRT last: MRTlast;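 on all read-outs here: peptide levels in plasma quantified by LC-MS across multiple sampling times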
Protocol: The peptide plasma concentration at various time points was determined using LC-MS.

human GLP-1R = human GLP-1R (Homo sapiens, UniProt P43220); assay: In vitro receptor activation reporter assay (CRE-Luc, HEK293-GLP-1R-CRE cells; receptor-mediated cAMP synthesis); type: cell-based; parameters: expressed in transfected cells; host or cells: HEK293 (CRE-HEK293, HEK293-GLP-1R-CRE); conditions: Table 11, human
[2] = CD-1, mouse, plasma, iv, 1 mg/kg, Table 15, I.V. 1 mg/kg
[3] = CD-1, mouse, plasma, sc, 1 mg/kg, S.C.
[4] = Table 15, I.V. 1 mg/kg, 1 mg/kg
[5] = iv, 1 mg/kg, Table 15, I.V. 1 mg/kg

Sequence of human GLP-1R (P43220 24-463): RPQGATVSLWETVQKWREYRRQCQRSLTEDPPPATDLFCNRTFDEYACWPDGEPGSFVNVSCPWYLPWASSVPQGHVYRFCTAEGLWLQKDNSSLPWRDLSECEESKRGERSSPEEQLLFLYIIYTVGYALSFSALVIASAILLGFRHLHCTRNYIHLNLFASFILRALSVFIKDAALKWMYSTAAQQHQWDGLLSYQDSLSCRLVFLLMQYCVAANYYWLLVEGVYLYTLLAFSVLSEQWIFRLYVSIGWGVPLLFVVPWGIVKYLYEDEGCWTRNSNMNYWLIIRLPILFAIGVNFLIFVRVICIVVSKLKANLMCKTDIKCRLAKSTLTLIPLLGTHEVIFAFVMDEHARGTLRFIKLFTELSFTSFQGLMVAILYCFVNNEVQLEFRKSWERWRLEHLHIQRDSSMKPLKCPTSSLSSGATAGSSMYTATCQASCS
Sequence of cynomolgous monkey GLP1R (F8V479 24-463): as the sequence (P43220 24-463) above, with S112N, F120S, S202G, L205V, L237F, W241R, I249V counted along it

CC[C@H](C)[C@H](NC(=O)[C@H](CC(C)C)NC(=O)[C@H](Cc1c[nH]c2ccccc12)NC(=O)[C@@H]1CSCC(=O)NCCN(C(=O)CCC(=O)NCCOCCOCCC(=O)NCCOCCOCCC(=O)NCCCC[C@H](NC(=O)CCCCCCCCCCCCCCCCC(=O)O)C(=O)O)CCNC(=O)CSC[C@H](NC(=O)[C@H](CCCCN)NC(=O)[C@H](CC(=O)O)NC(=O)[C@H](CC(C)C)NC(=O)[C@H](Cc2ccc(O)cc2)NC(=O)[C@@H](NC(=O)[C@H](CO)NC(=O)[C@H](Cc2ccc(O)cc2)NC(=O)[C@H](CC(=O)O)NC(=O)[C@H](CO)NC(=O)[C@@H](NC(=O)[C@H](Cc2ccccc2)NC(=O)[C@@H](NC(=O)CNC(=O)[C@H](CCC(=O)O)NC(=O)C(C)(C)NC(=O)[C@@H](N)Cc2ccc(O)cc2)[C@@H](C)O)[C@@H](C)O)[C@@H](C)CC)C(=O)N[C@@H](C)C(=O)N[C@@H](C)C(=O)NC(C)(C)C(=O)N[C@@H](CCC(=O)O)C(=O)N[C@@H](Cc2ccccc2)C(=O)N[C@@H](C(C)C)C(=O)N1)C(=O)N[C@@H](C)C(=O)NCC(=O)NCC(=O)N1CCC[C@H]1C(=O)N[C@@H](CO)C(=O)N[C@@H](CO)C(=O)NCC(=O)N[C@@H](C)C(=O)N1CCC[C@H]1C(=O)N1CCC[C@H]1C(=O)N1CCC[C@H]1C(=O)N[C@@H](CO)C(N)=O [mCMZ371, YAibEGT-FTSDY-SIYLD-KXAAAib-EFVXW-LIAGG-PSSGA-PPPS-NH2 (where each X is C) (SEQ ID NO: 61)]
EC50 (human GIPR; In Vitro Potency GIPR EC50, 10% FBS, 10% FBS): 0.04 ± 0.01 nM | EC50 (human GIPR; No Serum, read-out: In Vitro Potency GIPR EC50, No Serum): 0.01 nM | EC50 (mouse GLP1R): 0.09 nM | EC50 (cynomolgous monkey GLP1R): 0.11 nM | t1/2 in dogs (in words) (in vivo): long t1/2 | AUC(0-t) (in vivo; iv): 25.6 µg·h/mL | T last (in vivo; iv): 240 h | Vd (in vivo; iv): 0.11 L/kg | clearance (in vivo; iv): 0.0198 mL/min/kg | half-life (in vivo; iv): 71.9 h | AUC(0-t) (in vivo; sc): 17.6 µg·h/mL | Cmax (in vivo; sc): 150 ng/mL | T last (in vivo; sc): 240 h | Tmax (in vivo; sc): 24 h | half-life (in vivo; sc): 62.7 h | bioavailability (in vivo; sc, Bioavailability): 68.7% | AUC ([1]; CD-1, mouse, plasma, iv, 1 mg/kg, AUC0_24, Table 15, I.V. 1 mg/kg): 242 µg·h/mL | AUC(0-t) ([1]; CD-1, mouse, plasma, iv, 1 mg/kg, AUC last, Table 15, I.V. 1 mg/kg): 341 µg·h/mL | AUC(0-inf) [1, 2]: 344 µg·h/mL | C0 ([1]; CD-1, mouse, plasma, iv, 1 mg/kg, C0, Table 15, I.V. 1 mg/kg): 15500 ng/mL | Cmax ([1]; CD-1, mouse, plasma, iv, 1 mg/kg, Cmax, Table 15, I.V. 1 mg/kg): 15100 ng/mL | Tmax [1, 2]: 0.08 h | Vd ([1]; CD-1, mouse, plasma, iv, 1 mg/kg, Vss_pred, Table 15, I.V. 1 mg/kg): 0.051 L/kg | Vd ([1]; CD-1, mouse, plasma, iv, 1 mg/kg, Vz_pred, Table 15, I.V. 1 mg/kg): 0.038 L/kg | half-life ([1]; CD-1, mouse, plasma, iv, 1 mg/kg, t1/2, Table 15, I.V. 1 mg/kg): 9.13 h | AUC ([1]; CD-1, mouse, plasma, sc, 1 mg/kg, AUC0_24, CD-1 mouse, S.C.): 127 µg·h/mL | AUC(0-inf) [1, 3]: 274 µg·h/mL | AUC ([1]; CD-1, mouse, plasma, sc, 1 mg/kg, AUCall, S.C.): 267 µg·h/mL | CL/F ([1]; CD-1, mouse, plasma, sc, 1 mg/kg, Cl_Fpred, S.C.): 0.12 mL/min/kg | Tmax [1, 3]: 24 h | half-life ([1]; CD-1, mouse, plasma, sc, 1 mg/kg, t1/2, CD-1 mouse, S.C.): 10.7 h | AUC0_24 ([1]; CD-1 mouse, S.C., 1 mg/kg): 67.917 µg·h/mL and 95.28 µg·h/mL | AUCINF_pred ([1]; CD-1 mouse, S.C., 1 mg/kg): 143.707 µg·h/mL and 202.468 µg·h/mL | AUC_% Extrap_pred ([1]; CD-1 mouse, S.C., 1 mg/kg): 2.34% and 3.37% and 2.55% | AUCall ([1]; CD-1 mouse, S.C., 1 mg/kg): 138.868 µg·h/mL and 197.314 µg·h/mL | AUMC_% Extrap_pred ([1]; CD-1 mouse, S.C., 1 mg/kg): 7.05% and 10.52% and 7.78% | Cl_Fpred ([1]; CD-1 mouse, S.C., 1 mg/kg): 0.24 mL/min/kg | Cmax ([1]; CD-1 mouse, S.C., 1 mg/kg): 9259 ng/mL and 3389 ng/mL and 6337 ng/mL | MRTINF_pred ([1]; CD-1 mouse, S.C., 1 mg/kg): 28.76 h and 28.77 h | MRTlast ([1]; CD-1 mouse, S.C., 1 mg/kg): 26.63 h and 27.22 h | Tlast ([1]; CD-1 mouse, S.C., 1 mg/kg): 72 h | V_F_pred ([1]; CD-1 mouse, S.C., 1 mg/kg): 0.06 L/kg and 0.12 L/kg and 0.08 L/kg | t1/2 ([1]; CD-1 mouse, S.C., 1 mg/kg): 12.36 h and 11.01 h | Tlast ([1]; Table 15, I.V. 1 mg/kg): 72 h | AUC0_24 [1, 4]: 255.418 µg·h/mL and 285.442 µg·h/mL | AUC last [1, 4]: 355.565 µg·h/mL and 403.09 µg·h/mL | AUCINF_pred [1, 4]: 359.258 µg·h/mL and 407.964 µg·h/mL | AUC_% Extrap_pred [1, 4]: 0.75% and 1.03% and 1.19% | AUMC_% Extrap_pred [1, 4]: 3.41% and 4.82% and 5.56% | C0 [1, 4]: 21060 ng/mL and 24603 ng/mL | Cmax [1, 4]: 20910 ng/mL and 24203 ng/mL | MRTINF_pred [1, 4]: 18.43 h and 18.65 h | MRTlast [1, 4]: 17.72 h and 17.83 h | Vss_pred [1, 4]: 0.054 L/kg and 0.046 L/kg | Vz_pred [1, 4]: 0.04 L/kg and 0.036 L/kg | t1/2 [1, 4]: 10 h and 10.31 h | MRT inf [1, 5]: 18.7 h | MRT last [1, 5]: 18.2 h | MRT inf ([1]; sc, 1 mg/kg, CD-1 mouse, S.C.): 29 h | MRT last ([1]; sc, 1 mg/kg, CD-1 mouse, S.C.): 27.6 h | EC50 (human GLP-1R; In Vitro Potency GLPIR EC50, 10% FBS, 10% FBS): 0.56 ± 0.15 nM | EC50 (human GLP-1R; No Serum, read-out: In Vitro Potency GLPIR EC50, No Serum): 0.14 ± 0.06 nM
